From patent publication US11559589B2, “Compositions and methods for detection and modulation of T cell mediated immune responses against viral vectors utilized for gene therapy” (The Children's Hospital of Philadelphia, priority 2006, dated 2023)
Like-named read-outs stand apart in the source and are kept apart here.

T1: AAV-2 capsid (AAV-p74 peptide) peptide on HLA-B*07:02 (human)
T1 peptide: VPQYGYLTL


Columns and labels:
[1] = biological target: T1, AAV-2 capsid (AAV-p74 peptide) peptide …; experiment: multimer staining
[2] = biological target: MHC molecules displaying the AAV peptide epitopes on Malme-3 fibroblasts (UniProt P01889+P03135)
Protocol: AAV-scTCR multimer was tested in vitro using a normal human fibroblast cell line positive for HLA-B*0702 (Malme-3 available from the ATCC repository). Cells were peptide loaded with AAV capsid epitopes at a concentration of 10 ug/ml for 2 hrs at 37° C. and then stained with the AAV-scTCR multimer (FIG. 10); alternatively, cells were transduced with an AAV vector at an MOI of 5×10^5 or 1×10^6 and stained 24 or 48 hours later (FIG. 11).

[3] = test system: lymph node cells and splenocytes from HLA-B*0702 transgenic mice; experiment: AAV-scTCR multimer staining of cells from HLA-B*0702 transgenic mice after intravenous AAV vector; type: cell-based
Description: FIGS. 12A and 12B are a pair of histograms swing AAV-scTCR multimer staining of CD11c+CD19-cells collected from HLA B*0702 mice one week after intravenous infusion of 1E11 vector genomes (vg) of AAV.

[4] = biological target: AAV-p74 peptide/HLA-B7 complexes on cell surface of JyA2B7 cells (UniProt P01889+P03135); conditions: for minimum AAV-p74 peptide loading concentration stained: 0.5 μg multimer
Sequence of AAV-p74 peptide/HLA-B7 complexes on cell surface of JyA2B7 cells (P61769 21-119): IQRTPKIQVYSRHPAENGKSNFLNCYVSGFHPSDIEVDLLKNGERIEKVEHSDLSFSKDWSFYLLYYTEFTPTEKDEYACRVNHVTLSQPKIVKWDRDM
Sequence of AAV-p74 peptide/HLA-B7 complexes on cell surface of JyA2B7 cells (P01889 25-362): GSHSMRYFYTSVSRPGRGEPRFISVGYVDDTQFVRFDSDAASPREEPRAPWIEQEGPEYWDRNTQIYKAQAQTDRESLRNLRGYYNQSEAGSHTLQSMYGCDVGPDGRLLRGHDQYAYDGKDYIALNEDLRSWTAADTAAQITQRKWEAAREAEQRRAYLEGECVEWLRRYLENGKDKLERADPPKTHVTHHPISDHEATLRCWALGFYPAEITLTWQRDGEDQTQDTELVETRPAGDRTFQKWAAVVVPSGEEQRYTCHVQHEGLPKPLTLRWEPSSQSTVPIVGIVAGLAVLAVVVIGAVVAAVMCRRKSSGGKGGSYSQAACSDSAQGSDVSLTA
Description: AAV-p74 peptide loaded HLA-B7-positive human lymphoblastoid cell line (JyA2B7) was used to determine whether AAV-a-scTCR can bind to AAV-p74 peptide/HLA-B7 complexes on cell surface.

Sequence of MHC molecules displaying the AAV peptide epitopes on Malme-3 fibroblasts (P61769 21-119): as the sequence (P61769 21-119) above
Sequence of MHC molecules displaying the AAV peptide epitopes on Malme-3 fibroblasts (P01889 25-362): as the sequence (P01889 25-362) above

Molecule | binding result [1] | staining of peptide-loaded fibroblasts ([2]; AAV capsid epitopes 10 ug/ml, 2 hrs, 37° C.) | staining of AAV-transduced fibroblasts ([2]; AAV vector MOI 5×10^5 or 1×10^6, stained 24 or 48 hours later) | staining of lymph node cells and splenocytes [3] | minimum AAV-p74 peptide loading concentration stained ([4]; PLE added during loading) [µg/mL] | minimum AAV-p74 peptide loading concentration stained ([4]; typical conditions) [µg/mL] | staining of JyA2B7 cells ([4]; cells loaded with 50 μg/ml AAV-p74 peptide, 0.025 μg/test multimer)
AAV-b-scTCR-BirA (TCR, V domains shown) Valpha: TQLLEQSPQFLSIQEGENLTVYCNSSSVFSSLQWYRQEPGEGPVLLVTVVTGGEVKKLKRLTFQFGDARKDSSLHITAAQPGDTGLYLCAGKKTNDYKLSFGAGTTVTVRA Vbeta: ETGVTQTPRHLVMGMTNKESLKCEQHLGHNAMYWYKQSAKKPLELMFVYSLEERVENNSVPSRFSPECPNSSHLFLHLHTLQPEDSALYLCASSQDRVNLAGEQYFGPGTRLTVT | recognises | – | – | – | – | – | –
AAV-a-AJ31 (TCR, V domains shown) Valpha: SQQGEEDPQALSIQEGENATMNCSYKTSINNLQWYRQNSGRGLVHLILIRSNEREKHSGRLRVTLDTSKKSSSLLITASRAADTASYFCATLYNARLMFGDGTQLVVKP Vbeta: NAGVTQTPKFRVLKTGQSMTLLCAQDMNHEYMYWYRQDPGMGLRLIHYSVGEGTTAKGEVPDGYNVSRLKKQNFLLGLESAAPSQTSVYFCASRSGSAGAFFGQGTRLTVV | recognises | – | – | – | – | – | –
p74-scTCR multimer: PE-conjugated multimer generated from biotinylated AAV-a-AJ31 scTCR-BirA fusion protein (protein, left off: things letters cannot carry; a dimerising Fc or GST; small tags and cut ends, PE-conjugated multimer generated from biotinylated AAV-a-AJ31 scTCR-BirA fusion protein) alpha: SQQGEEDPQALSIQEGENATMNCSYKTSINNLQWYRQNSGRGLVHLILIRSNEREKHSGRLRVTLDTSKKSSSLLITASRAADTASYFCATLYNARLMFGDGTQLVVKP beta: NAGVTQTPKFRVLKTGQSMTLLCAQDMNHEYMYWYRQDPGMGLRLIHYSVGEGTTAKGEVPDGYNVSRLKKQNFLLGLESAAPSQTSVYFCASRSGSAGAFFGQGTRLTVV | – | positive staining | positive staining | positive staining | 1 | 5 | Specific staining
